Test results published in patent publication US20230193409A1.

T1: AcrVIA1
T1 sequence: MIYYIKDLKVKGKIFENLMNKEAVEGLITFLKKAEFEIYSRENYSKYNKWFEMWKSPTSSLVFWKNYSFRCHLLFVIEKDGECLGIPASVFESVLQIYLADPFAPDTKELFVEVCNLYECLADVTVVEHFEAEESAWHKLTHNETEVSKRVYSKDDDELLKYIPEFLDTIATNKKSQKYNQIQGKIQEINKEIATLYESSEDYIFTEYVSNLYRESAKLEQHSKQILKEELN

T2: AcrVIA1-3xFLAG
T2 sequence: T1 sequence

T3: AcrVIA1-3xFLAG
T3 chain: T1 sequence

T4: AcrVIA1
T4 chain: T1 sequence

B1: Leptotrichia buccalis Cas13a (protein)
chain: MKVTKVGGISHKKYTSEGRLVKSESEENRTDERLSALLNMRLDMYIKNPSSTETKENQKRIGKLKKFFSNKMVYLKDNTLSLKNGKKENIDREYSETDILESDVRDKKNFAVLKKIYLNENVNSEELEVFRNDIKKKLNKINSLKYSFEKNKANYQKINENNIEKVEGKSKRNIIYDYYRESAKRDAYVSNVKEAFDKLYKEEDIAKLVLEIENLTKLEKYKIREFYHEIIGRKNDKENFAKIIYEEIQNVNNMKELIEKVPDMSELKKSQVFYKYYLDKEELNDKNIKYAFCHFVEIEMSQLLKNYVYKRLSNISNDKIKRIFEYQNLKKLIENKLLNKLDTYVRNCGKYNYYLQDGEIATSDFIARNRQNEAFLRNIIGVSSVAYFSLRNILETENENDITGRMRGKTVKNNKGEEKYVSGEVDKIYNENKKNEVKENLKMFYSYDFNMDNKNEIEDFFANIDEAISSIRHGIVHFNLELEGKDIFAFKNIAPSEISKKMFQNEINEKKLKLKIFRQLNSANVFRYLEKYKILNYLKRTRFEFVNKNIPFVPSFTKLYSRIDDLKNSLGIYWKTPKTNDDNKTKEIIDAQIYLLKNIYYGEFLNYFMSNNGNFFEISKEIIELNKNDKRNLKTGFYKLQKFEDIQEKIPKEYLANIQSLYMINAGNQDEEEKDTYIDFIQKIFLKGFMTYLANNGRLSLIYIGSDEETNTSLAEKKQEFDKFLKKYEQNNNIKIPYEINEFLREIKLGNILKYTERLNMFYLILKLLNHKELTNLKGSLEKYQSANKEEAFSDQLELINLLNLDNNRVTEDFELEADEIGKFLDFNGNKVKDNKELKKFDTNKIYFDGENIIKHRAFYNIKKYGMLNLLEKIADKAGYKISIEELKKYSNKKNEIEKNHKMQENLHRKYARPRKDEKFTDEDYESYKQAIENIEEYTHLKNKVEFNELNLLQGLLLRILHRLVGYTSIWERDLRFRLKGEFPENQYIEEIFNFENKKNVKYKGGQIVEKYIKFYKELHQNDEVKINKYSSANIKVLKQEKKDLYIRNYIAHFNYIPHAEISLLEVLENLRKLLSYDRKLKNAVMKSVVDILKEYGFVATFKIGADKKIGIQTLESEKIVHLKNLKKKKLMTDRNSEELCKLVKIMFEYKMEEKKSEN

Assays:
AcrVIA1 [1] = tested on: T1, AcrVIA1
AcrVIA1-3xFLAG [2] = tested on: T2, AcrVIA1-3xFLAG
AcrVIA1-3xFLAG [3] = molecular target: T3, AcrVIA1-3xFLAG
AcrVIA1 [4] = molecular target: T4, AcrVIA1

Molecule | cis-RNase activity: cleavage of radiolabeled target RNA in vitro (AcrVIA1 [1]) | nonspecific cleavage of labeled non-target RNA, AcrVIA1 added before target RNA ("Acr first" lane) (AcrVIA1 [1]) | trans-cleavage of a labeled non-target RNA upon addition of unlabeled protospacer RNA in vitro (AcrVIA1 [1]) | cis- and trans-RNA cleavage in vitro (FIG. 2A-B) (AcrVIA1-3xFLAG [2]) | cis-RNA cleavage of spc2-target RNA by L. buccalis Cas13a (10 nM) with AcrVIA1-3xFLAG at 400, 100, 10 or 1 nM (AcrVIA1-3xFLAG [3]) | cis-RNA cleavage of spc2-target RNA by L. buccalis Cas13a (10 nM) with AcrVIA1 at 400, 100, 10 or 1 nM (AcrVIA1 [4])
L. seeligeri Cas13a-His6 | In the presence of excess AcrVIA1, however, target RNA cleavage was inhibited | if the AcrVIA1 inhibitor is added to the reaction containing Cas13 before adding the target RNA, then AcrVIA1 prevents target RNA binding and no Cas13 activity is observed | AcrVIA1 inhibited Cas13a-mediated trans-cleavage of a labeled non-target RNA | confirmed that both are active in vivo ... and in vitro (FIG. 2A-B) |  | 
B1 |  |  |  |  | AcrVIA1 does not inhibit Leptotrichia buccalis Cas13a | Addition of AcrVIA1 had no effect on protospacer RNA cleavage by purified L. buccalis Cas13a^crRNA
